Assay results taken from paper PMC11997335.
Where two headings read alike, the source gives them in different places.

Tests used:
Assay in all cases: single-molecule TIRF real-time association assay
[1] = molecular target: human cytoplasmic dynein-1 complex (human) (UniProt Q14204)
[2] = molecular target: human cytoplasmic dynein-1 complex (human) (UniProt Q14204); remark: listed apart in the source
[3] = molecular target: human cytoplasmic dynein-1 complex (human) (UniProt Q14204); remark: listed apart in the source

Substance | koff [1] | percent of complexes long-lived (>80 s) [1] | fraction of dynein molecules bound by the end of data acquisition [2] | koff [2] | percent of complexes long-lived (>80 s) [2] | percent of complexes medium-lived (20–80 s) [2] | percent of complexes short-lived (<20 s) [2] | dwell time, major peak [1] | kon [1] | percent of binding events short-lived (<20 s) [1] | percent of complexes medium-lived (20–80 s) [1] | percent of complexes short-lived (<20 s) [1] | kon [3]
BicD2 (amino acids 1–598) with N-terminal HaloTag (from UniProt Q8TD16 1-598) (domain or fragment) | 0.137 s⁻¹ | 37% | < 25% | 0.038 s⁻¹ | 6% | 22% | 72% |  |  |  |  |  | 
NINL (amino acids 1–702) with N-terminal HaloTag (from UniProt Q9Y2I6 1-702) (domain or fragment) | 0.0627 s⁻¹ | 16% | 60% |  |  |  |  | 5 s | 9.21e+06 M⁻¹ s⁻¹ | 32% | 37% | 47% | 7.97e+06 M⁻¹ s⁻¹
dynactin complex purified from HEK293T cells stably expressing p62-Halo-3xFLAG (from UniProt Q9UJW0;Q14203;P61163) |  | 9% |  |  |  |  |  | 5 s |  | 30% | 22% | 69% | 
